Assay results from patent US7067619 (LA JOLLA CANCER RESEARCH FOUNDATION, dated 2006).
Bridge positions count the residues as written; N and C are the ends. Ends that are not written are not given here. * marks the point of attachment. Cam = NC(=O)C*

B1: DCRRETAWRC phage (peptide)
peptide: DCRRETAWRC
notes: on fuse 5 phage, fused to pIII
B2: vitronectin purified from human plasma (ligand, UniProt P04004 20-478, looked up)
chain: DQESCKGRCTEGFNVDKKCQCDELCSYYQSCCTDYTAECKPQVTRGDVFTMPEDEYTVYDDGEEKNNATVHEQVGGPSLTSDLQAQSKGNPEQTPVLKPEEEAPAPEVGASKPEGIDSRPETLHPGRPQPPAEEELCSGKPFDAFTDLKNGSLFAFRGQYCYELDEKAVRPGYPKLIRDVWGIEGPIDAAFTRINCQGKTYLFKGSQYWRFEDGVLDPDYPRNISDGFDGIPDNVDAALALPAHSYSGRERVYFFKGKQYWEYQFQHQPSQEECEGSSLSAVFEHFAMMQRDSWEDIFELLFWGRTSAGTRQPQFISRDWHGVPGQVDAAMAGRIYISGMAPRPSLAKKQRFRHRNRKGYRSQRGHSRGRNQNSRRPSRATWLSLFSSEESNLGANNYDDYRMDWLVPATCEPIQSVFFFSGDKYYRVNLRTRRVDTVDPPYPRSIAQYWLGCPAPGHL
notes: also called labeled vitronectin
B3: CRGDCL-displaying phage (peptide)
peptide: CRGDCL
notes: on fuse 5 phage, fused to pIII; also called phage expressing CRGDCL
B4: cyclized peptide ACDCRGDCFCG (peptide)
peptide: ACDCRGDCFCG
modifications: disulfide (positions not given here); also: two disulfide bonds, pairing not determined
notes: synthetic; also called double disulfide bond-containing peptide
B5: PCREETAWRC phage (peptide)
peptide: PCREETAWRC
notes: as for B1
B6: WCREETGWWC phage (peptide)
peptide: WCREETGWWC
notes: as for B1
B7: YCRPETAWAC phage (peptide)
peptide: YCRPETAWAC
notes: as for B1
B8: cyclic peptide GACRGDCLGA (peptide)
peptide: GACRGDCLGA
modifications: disulfide 3-7 (inferred)
notes: synthetic; also called cyclic CRGDCL peptide
B9: SCREETGWGC phage (peptide)
peptide: SCREETGWGC
notes: as for B1
B10: DCRHETAWAC phage (peptide)
peptide: DCRHETAWAC
notes: as for B1
B11: RCREETAWAC phage (peptide)
peptide: RCREETAWAC
notes: as for B1
B12: RCRSETAWAC phage (peptide)
peptide: RCRSETAWAC
notes: as for B1
B13: RCREETLWAC phage (peptide)
peptide: RCREETLWAC
notes: as for B1
B14: SCRDETLWWC phage (peptide)
peptide: SCRDETLWWC
notes: as for B1
B15: DCRRETSWAC phage (peptide)
peptide: DCRRETSWAC
notes: as for B1
B16: ACRAETAWRC phage (peptide)
peptide: ACRAETAWRC
notes: as for B1
B17: cyclic peptide GACRRETAWACGA (peptide)
peptide: GACRRETAWACGA
modifications: disulfide 3-11 (inferred)
B18: CPSRLDSPC phage (peptide)
peptide: CPSRLDSPC
modifications: disulfide 1-9 (inferred); not fully specified (N-terminus, C-terminus)
notes: on fuse 5 phage, fused to pIII; also called RLD-containing phage
B19: WCRRETNWAC phage (peptide)
peptide: WCRRETNWAC
notes: as for B1
B20: cyclic peptide A*CPSRLDSPC*G (peptide)
peptide: ACPSRLDSPCG
modifications: disulfide 2-10 (inferred)
notes: synthetic; also called RLD-containing peptide
B21: RCRAETGWAC phage (peptide)
peptide: RCRAETGWAC
notes: as for B1
B22: ACRRETAWAC phage (peptide)
peptide: ACRRETAWAC
notes: as for B1
B23: VCRKETAWAC phage (peptide)
peptide: VCRKETAWAC
notes: as for B1
B24: GCRRETAWAC phage (peptide)
peptide: GCRRETAWAC
notes: as for B1
B25: HCRRETAWAC phage (peptide)
peptide: HCRRETAWAC
notes: as for B1
B26: ECRRETAWWC phage (peptide)
peptide: ECRRETAWWC
notes: as for B1
B27: ECRRETAWSC phage (peptide)
peptide: ECRRETAWSC
notes: as for B1
B28: GCRKETAWAC phage (peptide)
peptide: GCRKETAWAC
notes: as for B1
B29: ECRRETAWGC phage (peptide)
peptide: ECRRETAWGC
notes: as for B1
B30: GCRRETEWAC phage (peptide)
peptide: GCRRETEWAC
notes: as for B1
B31: WCRPETGWRC phage (peptide)
peptide: WCRPETGWRC
notes: as for B1
B32: WCRGETAWAC phage (peptide)
peptide: WCRGETAWAC
notes: as for B1
B33: SCRAETAWMC phage (peptide)
peptide: SCRAETAWMC
notes: as for B1
B34: Sepharose-coupled GRGDSPK peptide (peptide)
peptide: GRGDSPK
modifications: also: coupled to Sepharose
notes: also called GRGDSPK peptide column
B35: GCREETAWQC phage (peptide)
peptide: GCREETAWQC
notes: as for B1
B36: SCRRETQWHC phage (peptide)
peptide: SCRRETQWHC
notes: as for B1
B37: GACRRETAWACGA linearized by reduction and alkylation (peptide)
peptide: GAC(Cam)RRETAWAC(Cam)GA
B38: cyclic peptide GAC*ELRGDGWC*GA (peptide)
peptide: GACELRGDGWCGA
modifications: disulfide 3-11 (inferred)

How the values were obtained:
[1] = target: T1, α5β1 integrin isolated from human placental extract (human, UniProt P08648 42-1049; P05556 21-798); experiment: phage panning on coated integrin
T1 construct: coated on plastic wells or captured by anti-α5 antibody; also called fibronectin receptor
T1 sequence (P08648 42-1049, chain 1 of 2): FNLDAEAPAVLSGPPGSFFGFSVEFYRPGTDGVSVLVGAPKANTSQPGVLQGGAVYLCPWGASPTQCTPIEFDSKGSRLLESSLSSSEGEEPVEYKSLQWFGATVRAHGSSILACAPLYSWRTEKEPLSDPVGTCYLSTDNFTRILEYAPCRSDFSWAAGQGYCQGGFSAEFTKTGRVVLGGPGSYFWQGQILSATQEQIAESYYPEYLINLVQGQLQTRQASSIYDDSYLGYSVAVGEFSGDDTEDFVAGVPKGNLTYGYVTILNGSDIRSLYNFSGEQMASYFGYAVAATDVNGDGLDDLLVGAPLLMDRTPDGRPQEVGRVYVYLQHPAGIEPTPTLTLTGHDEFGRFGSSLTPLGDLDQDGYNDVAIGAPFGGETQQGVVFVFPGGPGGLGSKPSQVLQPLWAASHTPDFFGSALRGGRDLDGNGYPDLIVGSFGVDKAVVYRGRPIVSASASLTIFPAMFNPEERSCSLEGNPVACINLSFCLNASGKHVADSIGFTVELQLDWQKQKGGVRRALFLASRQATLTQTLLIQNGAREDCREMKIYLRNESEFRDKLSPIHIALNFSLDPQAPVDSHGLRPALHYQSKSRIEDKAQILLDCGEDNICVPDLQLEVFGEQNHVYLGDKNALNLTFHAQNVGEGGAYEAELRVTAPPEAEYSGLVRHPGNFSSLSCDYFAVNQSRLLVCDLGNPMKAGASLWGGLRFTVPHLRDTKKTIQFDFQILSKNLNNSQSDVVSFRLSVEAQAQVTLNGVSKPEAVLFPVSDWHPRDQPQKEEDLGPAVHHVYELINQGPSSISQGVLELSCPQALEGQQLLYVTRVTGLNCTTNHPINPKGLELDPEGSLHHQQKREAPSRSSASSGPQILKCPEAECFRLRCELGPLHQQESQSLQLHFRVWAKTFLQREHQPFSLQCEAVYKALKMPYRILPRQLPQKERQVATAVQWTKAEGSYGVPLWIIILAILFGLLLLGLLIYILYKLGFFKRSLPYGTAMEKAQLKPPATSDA
T1 sequence (P05556 21-798, chain 2 of 2): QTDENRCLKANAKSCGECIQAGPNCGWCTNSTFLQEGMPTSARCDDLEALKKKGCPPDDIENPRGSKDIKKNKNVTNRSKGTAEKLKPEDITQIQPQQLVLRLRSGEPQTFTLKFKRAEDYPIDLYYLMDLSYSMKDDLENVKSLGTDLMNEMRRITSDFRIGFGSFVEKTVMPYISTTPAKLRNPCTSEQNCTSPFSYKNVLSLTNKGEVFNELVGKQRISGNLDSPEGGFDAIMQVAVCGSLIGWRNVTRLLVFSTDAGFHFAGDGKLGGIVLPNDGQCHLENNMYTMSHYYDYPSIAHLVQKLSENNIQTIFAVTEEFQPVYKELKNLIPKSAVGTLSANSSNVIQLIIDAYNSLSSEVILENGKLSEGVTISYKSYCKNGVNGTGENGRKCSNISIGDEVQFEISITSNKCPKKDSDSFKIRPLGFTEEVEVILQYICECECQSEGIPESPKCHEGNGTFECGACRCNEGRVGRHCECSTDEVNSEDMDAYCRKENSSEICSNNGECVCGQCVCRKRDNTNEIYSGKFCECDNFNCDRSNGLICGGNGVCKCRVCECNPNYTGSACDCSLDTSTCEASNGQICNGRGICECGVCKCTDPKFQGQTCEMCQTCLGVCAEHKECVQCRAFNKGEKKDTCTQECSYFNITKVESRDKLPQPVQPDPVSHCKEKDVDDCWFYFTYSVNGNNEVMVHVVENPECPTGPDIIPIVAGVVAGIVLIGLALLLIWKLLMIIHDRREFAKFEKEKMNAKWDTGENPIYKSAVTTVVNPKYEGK

[2] = target: T2, αvβ5 integrin isolated from human placental extract (human, UniProt P06756 31-1048; P18084 24-799); experiment: affinity chromatography of placental extract
T2 sequence (P06756 31-1048, chain 1 of 2): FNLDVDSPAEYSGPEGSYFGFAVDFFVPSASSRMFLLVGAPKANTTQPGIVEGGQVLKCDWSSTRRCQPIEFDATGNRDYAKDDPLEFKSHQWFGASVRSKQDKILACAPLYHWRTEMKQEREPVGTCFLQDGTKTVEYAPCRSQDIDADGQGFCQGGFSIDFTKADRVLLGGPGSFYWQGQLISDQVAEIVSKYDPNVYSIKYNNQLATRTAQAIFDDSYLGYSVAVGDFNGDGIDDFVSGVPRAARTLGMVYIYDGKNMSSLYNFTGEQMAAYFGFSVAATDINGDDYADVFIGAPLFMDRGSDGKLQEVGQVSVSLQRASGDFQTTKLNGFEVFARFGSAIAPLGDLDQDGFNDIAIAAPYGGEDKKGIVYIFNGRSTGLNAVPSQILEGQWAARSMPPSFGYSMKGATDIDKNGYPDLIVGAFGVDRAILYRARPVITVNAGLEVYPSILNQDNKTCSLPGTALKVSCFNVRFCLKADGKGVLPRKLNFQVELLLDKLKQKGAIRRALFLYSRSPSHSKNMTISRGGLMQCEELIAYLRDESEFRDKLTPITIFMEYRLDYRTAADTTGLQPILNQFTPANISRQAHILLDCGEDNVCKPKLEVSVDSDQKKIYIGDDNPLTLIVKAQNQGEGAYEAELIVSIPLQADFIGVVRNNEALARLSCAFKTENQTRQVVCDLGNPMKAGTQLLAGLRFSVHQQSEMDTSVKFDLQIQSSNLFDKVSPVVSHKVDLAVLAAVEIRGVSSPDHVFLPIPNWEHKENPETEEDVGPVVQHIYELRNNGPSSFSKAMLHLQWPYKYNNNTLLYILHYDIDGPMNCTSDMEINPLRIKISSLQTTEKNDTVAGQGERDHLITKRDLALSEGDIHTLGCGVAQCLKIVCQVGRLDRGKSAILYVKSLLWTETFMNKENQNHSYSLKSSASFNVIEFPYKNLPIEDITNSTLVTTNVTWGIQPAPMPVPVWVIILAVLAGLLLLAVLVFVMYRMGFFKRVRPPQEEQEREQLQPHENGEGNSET
T2 sequence (P18084 24-799, chain 2 of 2): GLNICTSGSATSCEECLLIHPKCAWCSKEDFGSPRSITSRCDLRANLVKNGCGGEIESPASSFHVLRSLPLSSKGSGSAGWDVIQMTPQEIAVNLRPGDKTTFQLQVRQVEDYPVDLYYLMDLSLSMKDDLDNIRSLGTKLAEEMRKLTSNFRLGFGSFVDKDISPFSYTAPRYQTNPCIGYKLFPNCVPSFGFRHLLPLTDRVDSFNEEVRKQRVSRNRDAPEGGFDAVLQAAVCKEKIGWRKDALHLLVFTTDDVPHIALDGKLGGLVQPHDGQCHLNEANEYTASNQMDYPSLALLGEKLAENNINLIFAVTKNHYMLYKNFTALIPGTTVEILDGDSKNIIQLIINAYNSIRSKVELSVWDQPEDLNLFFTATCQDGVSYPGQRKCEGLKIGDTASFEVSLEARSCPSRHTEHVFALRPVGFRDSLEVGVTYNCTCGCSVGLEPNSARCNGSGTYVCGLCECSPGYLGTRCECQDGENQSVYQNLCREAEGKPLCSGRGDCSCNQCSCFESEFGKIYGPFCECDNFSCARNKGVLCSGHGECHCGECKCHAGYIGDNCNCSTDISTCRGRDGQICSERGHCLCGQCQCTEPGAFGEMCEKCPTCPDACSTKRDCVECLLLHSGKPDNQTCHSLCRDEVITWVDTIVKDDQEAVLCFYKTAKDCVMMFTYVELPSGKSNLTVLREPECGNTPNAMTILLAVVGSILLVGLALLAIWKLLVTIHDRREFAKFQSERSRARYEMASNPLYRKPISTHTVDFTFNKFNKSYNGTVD

[3] = target: T1, α5β1 integrin isolated from human …; experiment: phage binding to α5β1-coated wells
[4] = target: T2, αvβ5 integrin isolated from human …; experiment: competition with … phage on αvβ5-coated wells
Description: [SEQ ID NO:10] sequence were incubated for 1 hour in integrin-coated wells in the presence of the competing peptides or dimethyl sulfoxide solvent as a control.

[5] = target: T3, αvβ3 integrin isolated from human placental extract (human, UniProt P06756 31-1048; P05106 27-788); experiment: competition with phage on αvβ3-coated wells
T3 construct: isolated on GRGDSPK-Sepharose; said to be primarily αvβ3
T3 sequence (P06756 31-1048, chain 1 of 2): as the sequence (P06756 31-1048, chain 1 of 2) above
T3 sequence (P05106 27-788, chain 2 of 2): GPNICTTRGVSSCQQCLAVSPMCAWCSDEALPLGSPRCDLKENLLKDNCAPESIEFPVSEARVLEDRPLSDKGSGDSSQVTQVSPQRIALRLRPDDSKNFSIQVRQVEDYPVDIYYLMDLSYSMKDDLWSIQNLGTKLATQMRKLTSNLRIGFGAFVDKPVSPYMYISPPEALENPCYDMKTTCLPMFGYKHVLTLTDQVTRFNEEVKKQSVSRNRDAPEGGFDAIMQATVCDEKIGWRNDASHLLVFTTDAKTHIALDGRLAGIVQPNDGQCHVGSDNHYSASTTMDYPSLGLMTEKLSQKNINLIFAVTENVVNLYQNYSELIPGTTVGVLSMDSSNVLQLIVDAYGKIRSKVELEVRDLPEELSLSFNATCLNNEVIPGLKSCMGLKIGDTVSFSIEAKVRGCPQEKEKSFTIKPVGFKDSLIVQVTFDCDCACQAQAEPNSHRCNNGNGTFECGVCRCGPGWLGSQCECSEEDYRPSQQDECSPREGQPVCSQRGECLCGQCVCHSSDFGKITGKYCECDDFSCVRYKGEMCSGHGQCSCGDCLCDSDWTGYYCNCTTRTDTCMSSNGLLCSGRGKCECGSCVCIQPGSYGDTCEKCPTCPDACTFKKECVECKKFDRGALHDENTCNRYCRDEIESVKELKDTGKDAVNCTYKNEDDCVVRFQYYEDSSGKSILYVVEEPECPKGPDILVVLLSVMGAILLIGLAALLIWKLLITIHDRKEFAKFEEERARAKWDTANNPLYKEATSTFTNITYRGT

[6] = target: αvβ3 integrin on IMR-90 cells (UniProt P06756 31-1048; P05106 27-788); experiment: cell-based or functional assay
Sequence of αvβ3 integrin on IMR-90 cells (P06756 31-1048, chain 1 of 2): as the sequence (P06756 31-1048, chain 1 of 2) above
Sequence of αvβ3 integrin on IMR-90 cells (P05106 27-788, chain 2 of 2): as the sequence (P05106 27-788, chain 2 of 2) above

[7] = target: αvβ5 integrin on HT-29 and UCLA-P3 cells (UniProt P06756 31-1048; P18084 24-799); experiment: cell-based or functional assay
Sequence of αvβ5 integrin on HT-29 and UCLA-P3 cells (P06756 31-1048, chain 1 of 2): as the sequence (P06756 31-1048, chain 1 of 2) above
Sequence of αvβ5 integrin on HT-29 and UCLA-P3 cells (P18084 24-799, chain 2 of 2): as the sequence (P18084 24-799, chain 2 of 2) above

[8] = target: T3, αvβ3 integrin isolated from human …; experiment: competition with CRGDCL phage on αvβ3-coated wells
Description: The ability of […] […] [SEQ ID NO:5] was added to compete for binding. Binding was quantitated as described above.

[9] = target: T1, α5β1 integrin isolated from human …; experiment: competition with RRETAWA phage on α5β1-coated wells
[10] = target: α5β1 integrin composed of human α5 and CHO β1 on B2/α27 cells (human; Chinese hamster (CHO), UniProt P08648 42-1049); experiment: cell-based or functional assay
Sequence of α5β1 integrin composed of human α5 and CHO β1 on B2/α27 cells (P08648 42-1049): as the sequence (P08648 42-1049, chain 1 of 2) above

[11] = target: αvβ1 integrin on CHO cell line B2/v7; experiment: cell-based or functional assay
[12] = target: T1, α5β1 integrin isolated from human …; experiment: phage binding to integrin-coated wells
[13] = target: T3, αvβ3 integrin isolated from human …; experiment: phage panning on coated integrin
Description: In the first panning, the integrins were coated at 5 µg per well, and the library pool was incubated for 4 hours at 25° C. in TBS buffer containing 1% bovine serum albumin and 1 mM MnCl_2 (α_5β_1, α_vβ_3) 1 mM MgCl_2 ($\alphaIIb\beta_3$) or 1 mM CaCl_2 (α_vβ_5).

[14] = target: T2, αvβ5 integrin isolated from human …; experiment: phage competition on αvβ5-coated wells
[15] = target: T3, αvβ3 integrin isolated from human …; experiment: phage competition on αvβ3-coated wells
[16] = target: T3, αvβ3 integrin isolated from human …; experiment: affinity chromatography of placental extract

| Binder | binding result [1] | other results |
| --- | --- | --- |
| B1 | binds |  |
| B2 |  | binding result [2]: binds |
| B3 |  | binding result [3]: binds |
| B4 |  | fold more potent than *CRGDC* [4]: 10 fold; fold better inhibition than *CRGDC* [5]: 5 fold; IC50 of inhibition of attachment of IMR-90 cells to vitronectin [6]: 0.2 µM; fold more effective than *CRGDC*, attachment of IMR-90 cells to vitronectin [6]: 20 fold; IC50 of inhibition of attachment of HT-29 cells to vitronectin [7]: 0.6 µM; IC50 of inhibition of attachment of UCLA-P3 cells to vitronectin [7]: 0.6 µM; fold enhancement in activity relative to *CRGDC*, UCLA-P3 cells [7]: 20 fold; fold higher affinity than *CRGDC*, attachment of HT-29 cells to vitronectin [7]: 40 fold; fold higher affinity than A*CRGDGWC*G, attachment of HT-29 cells to vitronectin [7]: 40 fold |
| B5 | binds |  |
| B6 | binds |  |
| B7 | binds |  |
| B8 |  | binding result [8]: binds; binding result [9]: binds |
| B9 | binds |  |
| B10 | binds |  |
| B11 | binds |  |
| B12 | binds |  |
| B13 | binds |  |
| B14 | binds |  |
| B15 | binds |  |
| B16 | binds |  |
| B17 |  | IC50 of inhibition of cell attachment to fibronectin (B2/α27 cells) [10]: 30 µM; fold less active than the cyclic RGD peptide, inhibition of cell attachment to fibronectin [11]: > 100 ×; fold less active than …, inhibition of cell attachment to fibronectin [11]: ~40 × |
| B18 |  | binding result [12]: no binding; binding result [13]: binds |
| B19 | binds |  |

| Binder | binding result [1] | other results |
| --- | --- | --- |
| B20 |  | fold lower activity than *CRGDC* [14]: 1000 fold; fold lower activity than *CRGDC* [15]: 100 fold |
| B21 | binds |  |
| B22 | binds |  |
| B23 | binds |  |
| B24 | binds |  |
| B25 | binds |  |
| B26 | binds |  |
| B27 | binds |  |
| B28 | binds |  |
| B29 | binds |  |
| B30 | binds |  |
| B31 | binds |  |
| B32 | binds |  |
| B33 | binds |  |
| B34 |  | binding result [16]: binds |
| B35 | binds |  |
| B36 | binds |  |
| B37 |  | fold reduction of activity against the cyclic peptide, cell attachment to fibronectin [10]: ~50 × |
| B38 |  | fold less active than A*CRGDGWC*G, cell attachment to fibronectin [10]: 10 fold |
